Positions count from the first letter of the chain named. Names and notes keep the numbering of the source.
B1: M1IC-G2-1 (bispecific antibody, human IgG1, kappa)
chain: QVQLVESGGGVVQPGRSLRLSCAASGFTFSTYAMNWVRQAPGKGLEWVARIRSKYNNYATYYADSVKDRFTISRDDSKNTLYLQMNSLRAEDTAVYYCARHGNFGNSYVSWFAYWGQGTLVTVSSGGGGSGGGGSGGGGSQTVVTQEPSLTVSPGGTVTLTCRSSTGAVTTSNYANWVQQKPGQAPRGLIGGTNKRAPGVPARFSGSLLGGKAALTLSGVQPEDEAEYYCALWYSNLWVFGGGTKVEIKGGGGSDKTHTCPPCPAPPVAGPSVFLFPPKPKDTLMISRTPEVTCVVVDVSHEDPEVQFNWYVDGVEVHNAKTKPREEQFNSTFRVVSVLTVVHQDWLNGKEYKCKVSNKGLPAPIEKTISKTKGQPREPQVCTLPPSRDELTKNQVSLSCAVKGFYPSDIAVEWESNGQPENNYKTTPPVLDSDGSFFLVSKLTVDKSRWQQGNVFSCSVMHEALHNHYTQKSLSLSPGK
heavy: EVKLDETGGGLVQPGRPMKLSCVASGFTFSDYWMNWVRQSPEKGLEWVAQIRNKPYNYETYYSDSVKGRFTISRDDSKSSVYLQMNNLRVEDMGIYYCTGSYYGMDYWGQGTSVTVSSASTKGPSVFPLAPSSKSTSGGTAALGCLVKDYFPEPVTVSWNSGALTSGVHTFPAVLQSSGLYSLSSVVTVPSSSLGTQTYICNVNHKPSNTKVDKKVEPKSCDKTHTCPPCPAPPVAGPSVFLFPPKPKDTLMISRTPEVTCVVVDVSHEDPEVQFNWYVDGVEVHNAKTKPREEQFNSTFRVVSVLTVVHQDWLNGKEYKCKVSNKGLPAPIEKTISKTKGQPREPQVYTLPPCRDELTKNQVSLWCLVKGFYPSDIAVEWESNGQPENNYKTTPPVLDSDGSFFLYSKLTVDKSRWQQGNVFSCSVMHEALHNHYTQKSLSLSPGK
light: DVVMTQTPLSLPVSLGDQASISCRSSQSLVHSNGNTYLRWYLQKPGQSPKVLIYKVSNRFSGVPDRFSGSGSGTDFTLKISRVEAEDLGVYFCSQSTHVPWTFGGGTKLEIKRTVAAPSVFIFPPSDEQLKSGTASVVCLLNNFYPREAKVQWKVDNALQSGNSQESVTEQDSKDSTYSLSSTLTLSKADYEKHKVYACEVTHQGLSSPVTKSFNRGEC
notes: structure 1 isotype control; CH2 G2CH2
B2: PDL1-M1-G2 (bispecific antibody)
chain: B1 chain with G250R, G252R
heavy: not shown
light: not shown
notes: structure 1; PD-L1 x CD3; CH2 G2CH2
B3: M1IC-GG2-1 (bispecific antibody, human IgG1, kappa)
chain: B1 chain with C263G
heavy: B1 heavy with C230G
light: B1 light
notes: structure 1 isotype control; CH2 GG2CH2
B4: PDL1-M1-SG2 (bispecific antibody)
chain: B1 chain with G250R, G252R, C263S
heavy: not shown
light: not shown
notes: structure 1; PD-L1 x CD3; CH2 SG2CH2
B5: M1IC-DG2-1 (bispecific antibody, human IgG1, kappa)
chain: B1 chain with D298A
heavy: B1 heavy with D265A
light: B1 light
notes: structure 1 isotype control; CH2 DG2CH2; also called MlIC-DG2-1
B6: M1IC-SG2-1 (bispecific antibody, human IgG1, kappa)
chain: B1 chain with C263S
heavy: B1 heavy with C230S
light: B1 light
notes: structure 1 isotype control; CH2 SG2CH2
B7: M1IC-G2D-1 (bispecific antibody, human IgG1, kappa)
chain: B1 chain with D303A
heavy: B1 heavy with D270A
light: B1 light
notes: structure 1 isotype control; CH2 G2DCH2
B8: M1IC-AG2-1 (bispecific antibody, human IgG1, kappa)
chain: B1 chain with C263A
heavy: B1 heavy with C230A
light: B1 light
notes: structure 1 isotype control; CH2 AG2CH2
B9: M1IC-PG2-1 (bispecific antibody, human IgG1, kappa)
chain: B1 chain with C263P
heavy: B1 heavy with C230P
light: B1 light
notes: structure 1 isotype control; CH2 PG2CH2
B10: M1IC-DG2D-1 (bispecific antibody, human IgG1, kappa)
chain: B1 chain with D298A, D303A
heavy: B1 heavy with D265A, D270A
light: B1 light
notes: structure 1 isotype control; CH2 DG2DCH2
B11: PDL1-M1-FES (bispecific antibody)
chain: QVQLVESGGGVVQPGRSLRLSCAASGFTFSTYAMNWVRQAPGKGLEWVARIRSKYNNYATYYADSVKDRFTISRDDSKNTLYLQMNSLRAEDTAVYYCARHGNFGNSYVSWFAYWGQGTLVTVSSGGGGSGGGGSGGGGSQTVVTQEPSLTVSPGGTVTLTCRSSTGAVTTSNYANWVQQKPGQAPRGLIGGTNKRAPGVPARFSGSLLGGKAALTLSGVQPEDEAEYYCALWYSNLWVFGGGTKVEIKRGRGSDKTHTCPPCPAPEFEGGPSVFLFPPKPKDTLMISRTPEVTCVVVDVSHEDPEVKFNWYVDGVEVHNAKTKPREEQYNSTYRVVSVLTVLHQDWLNGKEYKCKVSNKALPASIEKTISKAKGQPREPQVCTLPPSRDELTKNQVSLSCAVKGFYPSDIAVEWESNGQPENNYKTTPPVLDSDGSFFLVSKLTVDKSRWQQGNVFSCSVMHEALHNHYTQKSLSLSPGK
heavy: not shown
light: not shown
notes: structure 1; PD-L1 x CD3; CH2 FES
B12: PDL1-M1-LALA (bispecific antibody)
chain: B11 chain with F268A, E269A, S365P
heavy: not shown
light: not shown
notes: structure 1; PD-L1 x CD3; CH2 LALA

Legend:
Human CD3ε = target: T1, Human CD3ε (human, UniProt P07766 23-126); test: flow cytometry, human T cells
T1 construct: CD3 on T cells isolated from human whole blood
Description: 1) Cell preparation: T cells isolated from CD3-positive human whole blood were used for a CD3 end affinity detection of multifunctional antibody molecule; positive tumor cells of corresponding antigen were used for detecting affinity of tumor antigen; for example, CD38-positive MM. 1S cells (purchased from the Cell Resource Center of Shanghai Institutes for Biological Sciences, Chinese Academy of Sciences) or RPMI 8226 cells (purchased from the Cell Resource Center of Shanghai Institutes for Biological Sciences, Chinese Academy of Sciences) were used for CD38 antigen detection, and PD-L1 positive H358 cells (purchased from the Cell Resource Center of Shanghai Institutes for Biological Sciences, Chinese Academy of Sciences) were used for PD-L1 antigen detection, and so on. The cells were resuspended with 1% FBS-PBS, adjusted to a density of 4×10⁶/ml, and 50 μl of cells were taken from each well, and then plated at 2×10⁵ per well. Cell plating was operated on ice
2) Addition of the antibody: according to the experimental design, the antibody was diluted gradually, and dilution of antibody was operated on ice. For example, the initial concentration of antibody for dilution was 3000 nM, and the antibody was diluted by 3 times with 11 concentration gradients. The diluted antibody was added to a cell well at 50 μl per well, mixed well, and shaked and incubated at 4° C. 1100 rpm/min for 2 h; after washing, the cells were resuspend in 1% FBS-PBS, and a diluted secondary antibody PE anti-human IgG FC (Biolegend, 409304) was added with a final concentration of 8 ug/ml and a volume of 50 μl/well. At the same time, a well only added with cells and secondary antibody was set as a control, the components were mixed well, and incubated under shaking at 1100 rpm/min at 4° C. for 1 h;
5) Data analysis: the data was analyzed by a flow analysis software FlowJo 7.6 thereby obtaining an average fluorescence intensity of the specific antibody concentration, plotted by a Graphpad Prism 5 with the antibody concentration (nM) as an abscissa and the average fluorescence intensity as an ordinate; the EC50 value was calculated by the method of One site—Specific binding, and the EC50 value indicated the cell affinity of the antibody to the corresponding target antigen.

Monkey CD3 = target: T2, Monkey CD3 (monkey); test: flow cytometry, monkey T cells
T2 construct: whole, on cells; also called CD3 of monkey CD3 positive T cells

Binder	EC50 (Human CD3ε) [µM]	EC50 (Monkey CD3) [µM]
B1	0.127	0.165
B2	0.191	0.239
B3	0.168	0.166
B4	0.177	0.194
B5	0.12	0.13
B6	0.122	0.222
B7	0.101	0.143
B8	0.163	0.197
B9	0.116	0.146
B10	0.128	0.181
B11	0.2	0.207
B12	0.153	0.196
